Substrate in this assay: FBS (fetal bovine serum) proteins
Kind of assay: FBS protein binding assay: 25 uM agent in 100% FBS, Amicon 10 K cutoff ultrafiltration, fluorescence of fractions.

Non-standard residues stand in square brackets, D forms with d. No end group written: not given here. *: point of attachment. Phe(4-I) = N[C@@H](Cc1ccc(I)cc1)C(=O)O; Fmoc = O=C(OCC1c2ccccc2-c2ccccc21)*

On to Fmoc-[Phe(4-I)]LPNSNHIK(IRDye800)QGL [4Iphf-HN18-IR800], for which the percent bound was determined as 70%.

Consider TSPLNIHNGQK(IRDye800)L [HN1-IR800], for which the percent bound worked out at 52%.
